In patent publication US20140234211A1 (INVECTORS S R L, published 2014):
Y(DOTA) = not defined here; Y(DTPA) = not defined here; AhOh = not defined here; Peg27 = L1, H-Peg27-OH

B1: monomer of formula (I) of example 1.a, H-L1-Y(C)-L2-P: P = Gln-Trp-Ala-Val-Gly-His-Leu-Nle-NH2, C = DTPA, L1 = H-Peg27-OH, L2 = H-AhOh-OH, in liposomes (peptide)
peptide: QWAVGHLX
modifications: not fully specified; Nle at position 8; C-terminal amide (NH2); N-terminal amino group amide-linked to spacer L2 (H-AhOh-OH) of the lipid/DTPA monomer
notes: also called monomer 1a
B2: monomer of formula (I) of example 1.k, H-L1-Y(C)-L2-P: P = Gln-Trp-Ala-Val-Gly-His-Leu-Met-NH2, C = DOTA, L1 = H-Peg27-OH, L2 = H-AhOh-OH, in liposomes (peptide)
peptide: {Peg27-Y(DOTA)-AhOh}-QWAVGHLM-NH2
modifications: reading uncertain; also: in liposomes
notes: Chelating agent DOTA; Tested in 111In-labelled liposomes
B3: monomer of formula (I) of example 1.g, H-L1-Y(C)-L2-P: P = Gln-Trp-Ala-Val-Gly-His-Leu-Nle-NH2, C = DOTA, L1 = H-Peg27-OH, L2 = H-AhOh-OH, in liposomes (peptide)
peptide: QWAVGHLX
modifications: not fully specified; Nle at position 8; C-terminal amide (NH2); N-terminal amino group amide-linked to spacer L2 (H-AhOh-OH)
notes: as for B2

target: T1, GRP receptor overexpressed on PC-3 cells (UniProt P30550 1-384); assay: 111In-labelled liposomes on PC-3 cells overexpressing the GRP receptor; cell-bound radioactivity by gamma counting
T1 construct: whole, on cells; also called GRP receptors
Description: On the day of the experiment, the cell medium is removed, the cells are washed two times with fresh medium (DMEM with 1% of foetal bovine serum, pH 7.4) and incubated for at least one hour at 37° C. The cells were incubated (in triplicate) with 100 μL of liposomes labelled with indium 111/natural indium at various times (30 mins, 1 hour, 2 hours, 4 hours). The final volume is 1 mL and the final liposomal concentration is 2*10⁻⁴M. At the end of the incubation, the cell medium, containing the unbound radioactivity, is separated from the cells.
The radioactivity bound to the cells was recovered by tryptic digestion after two rapid washes with […] PBS followed by 1 hour of incubation and measured by gamma counting. The difference in binding of the liposomes containing H-L₁-Y(C)-L₂-P with the bombesin peptide, compared to when the peptide is absent, is clearly visible in FIG. 2. Experiments were conducted with various type (1) monomers in the liposomal formulation, varying the peptide sequences and the chelating agent, such as those described in examples 1a-1o. No substantial differences are found in the target selective binding properties. For example, in FIG. 2 the result for the liposomes containing monomer 1a is reported.

T1 sequence (P30550 whole entry): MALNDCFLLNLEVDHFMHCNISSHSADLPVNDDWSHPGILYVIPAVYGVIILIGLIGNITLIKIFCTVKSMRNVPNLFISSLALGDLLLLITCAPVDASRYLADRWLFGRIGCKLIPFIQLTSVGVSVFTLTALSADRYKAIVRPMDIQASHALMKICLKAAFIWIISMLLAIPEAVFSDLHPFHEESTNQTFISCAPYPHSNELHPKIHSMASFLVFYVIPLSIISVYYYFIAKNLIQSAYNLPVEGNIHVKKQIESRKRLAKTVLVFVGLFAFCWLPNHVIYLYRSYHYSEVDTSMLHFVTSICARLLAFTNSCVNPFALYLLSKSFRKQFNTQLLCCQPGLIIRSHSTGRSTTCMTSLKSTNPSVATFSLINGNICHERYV

| Binder | binding result |
| --- | --- |
| B1 | binds |
| B2 | binds |
| {Peg27-Y(DTPA)-AhOh}-QWAVGHLM-NH2 (reading uncertain; also: in liposomes, Tested in 111In-labelled liposomes) | binds |
| B3 | binds |
